Reference: patent US20260209374A1 (ENOSI THERAPEUTICS, published 2026)
Values joined by “and” are separate entries in the source; they are usually repeats but may differ in a detail not shown here. Identical values can stand only once.

T1: extracellular domain of TNFR-1 (Example 4) (UniProt P19438 30-211, limits assumed)
T1 construct: extracellular domain; also called TNFR1 extracellular domain
T1 sequence (looked up): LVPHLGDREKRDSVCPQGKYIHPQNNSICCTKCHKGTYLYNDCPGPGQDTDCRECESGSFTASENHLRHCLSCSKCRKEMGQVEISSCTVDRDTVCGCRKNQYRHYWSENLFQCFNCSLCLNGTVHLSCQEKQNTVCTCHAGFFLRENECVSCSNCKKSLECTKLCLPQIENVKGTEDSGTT

T2: human soluble TNFR1 (human, UniProt P19438 30-211)
T2 construct: also called hTNFR1; hTNFR-1
T2 sequence: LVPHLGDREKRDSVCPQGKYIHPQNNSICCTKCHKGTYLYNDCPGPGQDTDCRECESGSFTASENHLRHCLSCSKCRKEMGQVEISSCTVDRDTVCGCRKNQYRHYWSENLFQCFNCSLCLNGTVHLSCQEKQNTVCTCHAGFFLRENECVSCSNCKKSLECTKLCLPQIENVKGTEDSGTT

T3: TNFR1 on the cells of the TNF-dependent bioassays (THP1 cells in Examples 4 and 6) (human, UniProt P19438 30-455)
T3 sequence: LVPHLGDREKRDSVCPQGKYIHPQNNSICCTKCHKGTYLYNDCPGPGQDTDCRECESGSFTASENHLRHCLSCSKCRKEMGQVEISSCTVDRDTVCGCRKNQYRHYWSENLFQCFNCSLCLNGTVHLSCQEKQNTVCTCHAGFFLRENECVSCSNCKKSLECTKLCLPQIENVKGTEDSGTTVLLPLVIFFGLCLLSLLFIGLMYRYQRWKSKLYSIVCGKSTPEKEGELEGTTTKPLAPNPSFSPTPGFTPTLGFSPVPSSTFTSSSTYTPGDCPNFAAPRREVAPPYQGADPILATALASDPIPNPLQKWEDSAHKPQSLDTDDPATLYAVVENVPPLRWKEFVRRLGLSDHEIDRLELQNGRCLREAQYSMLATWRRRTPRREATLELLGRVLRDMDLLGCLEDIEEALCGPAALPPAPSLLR

T4: human soluble TNFR2 (human, UniProt P20333 23-257)
T4 construct: also called hTNFR2; TNF receptor type 2
T4 sequence: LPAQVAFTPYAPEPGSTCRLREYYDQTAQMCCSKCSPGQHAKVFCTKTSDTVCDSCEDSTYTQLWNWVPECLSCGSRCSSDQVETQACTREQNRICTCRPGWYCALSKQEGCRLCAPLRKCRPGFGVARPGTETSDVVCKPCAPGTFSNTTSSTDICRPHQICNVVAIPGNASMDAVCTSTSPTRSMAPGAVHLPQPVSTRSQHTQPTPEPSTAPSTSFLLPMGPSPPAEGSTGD

T5: Human TNFR1/CD120a protein, His & Avi tag (human, UniProt P19438 30-211)
T5 construct: Captured on HIS1K or streptavidin biosensors; also called TNFR1-His-avi tag protein; immobilized soluble human TNFR1; not shown: His tag and Avi tag
T5 sequence: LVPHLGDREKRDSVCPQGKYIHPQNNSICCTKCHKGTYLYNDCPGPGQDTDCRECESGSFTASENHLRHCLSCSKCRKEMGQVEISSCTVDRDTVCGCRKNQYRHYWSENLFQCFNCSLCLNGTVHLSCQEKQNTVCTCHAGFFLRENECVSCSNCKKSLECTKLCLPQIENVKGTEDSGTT


Assays:
[1] = target: T1, extracellular domain of TNFR-1 (Example …); assay: SPR (Biacore method)
human soluble TNFR1 [2] = target: T2, human soluble TNFR1; assay: SPR (format not described)
[3] = target: T3, TNFR1 on the cells of the TNF-dependent …; assay: cell-based or functional assay
[4] = target: T1, extracellular domain of TNFR-1 (Example …); assay: competition assay, Vhh inhibition of TNF-α binding to TNFR1 extracellular domain; competitor TNF-α
Method: Competition assays of Vhh inhibition of TNF-α binding to TNFR1 extracellular domain also were performed as described in Richter et al. (2019).

[5] = target: T3, TNFR1 on the cells of the TNF-dependent …; assay: cell-based or functional assay; remark: listed apart in the source
human soluble TNFR2 [6] = target: T4, human soluble TNFR2; assay: SPR; VHH-Fc captured by anti-human IgG (Fc) antibody on CM5 sensor chip, TNFR2 as analyte
human soluble TNFR1 [7] = target: T2, human soluble TNFR1; assay: SPR; VHH-Fc captured by anti-human IgG (Fc) antibody on CM5 sensor chip, human soluble TNFR1 as analyte
Source text: CM5 sensor chip (Cytiva #BR100530) was coated with an anti-human IgG (Fc) antibody (Cytiva #29234600) to capture the EN1206-BV and EN1208-BV. The human soluble TNFR1 was used as analyte for binding flow.

human soluble TNFR1 [8] = target: T2, human soluble TNFR1; assay: SPR; VHH-Fc captured on Series S Protein A sensor chip, human soluble TNFR1 as analyte (0.781-100 nM), 1:1 binding fit
Source text: (§1) Series S Sensor Chip Protein A (Cytiva #29127556) was used to immobilize the Fc portion of the VHH/Fc proteins. The human soluble TNFR1 and TNFR2 are used for the SPR binding flow.

human soluble TNFR2 [9] = target: T4, human soluble TNFR2; assay: SPR; VHH-Fc captured on Series S Protein A sensor chip, human soluble TNFR2 as analyte
Source text: as §1

[10] = target: T5, Human TNFR1/CD120a protein, His & Avi …; assay: BLI, Octet RED96; TNFR1-His-Avi immobilised on anti-penta-His (HIS1K) biosensor, EN1206-mv 0.412-100 nM
Method: An Octet instrument RED96 was used for the assay. Octat anti-penta His biosensor (HIS1K) and Octet Streptavidin (SA) biosensor were used to immobilize the TNFR1-His-avi tag protein. […] Octet RED96 was used to measure the binding affinity of EN1206-mv and EN1208-bv. […] A dose-dependent binding of EN1208-bv to the immobilized TNFR1 on SA chip was detected within the concentration range of 3.7 nm to 300 nM (FIG. 11B).
The experiments started with the determination of the binding specificity and affinity of EN1206 and EN1208 to the immobilized human soluble TNFR1. A concentration-dependent binding of EN1206 and EN1208 to the TNFR1 was observed, respectively (Table 15, FIGS. 11A-11B). Due to a lack of detectable dissociation of EN1208-BV after its binding to the immobilized TNFR1 within the dissociation assay time frame (~5 min), the on-rate (ka) and off-rate (kd) could not be calculated. Thus, an affinity (KD) for EN1208 was estimated (Table 15).

Kd [1] | TNF Dependent Bioassay (IC50): VCAM [3] | relative gene expression of IL8/CXCL8 (qPCR, THP1 cells, TNF 100 ng/ml), 1 nM inhibitor, against baseline [5] | fold improvement over Etanercept in inhibition of IL-8 expression, TNF-stimulated THP1 cells (qPCR) [5] | fold improvement over Etanercept in inhibition of TNF expression, TNF-stimulated THP1 cells (qPCR) [5] | relative potency against 206dAb, suppression of TNF-induced expression of IL8/CXCL8 in THP1 cells, 1 nM [5] | relative potency against 206dAb, suppression of TNF-induced expression of TNF in THP1 cells, 1 nM [5] | Kd (human soluble TNFR1 [8]) | Binder | further results
0.00066 nM | 0.3 nM |  |  |  |  |  |  | Vhh-4 (VHH) VHH: EVQLLESGGGLVQPGGSLRLSCAASGFTFAHETMVWVRQAPGKGLEWVSHIPPDGQDPFYADSVKGRFTISRDNSKNTLYLQMNSLRAEDTAVYHCALLPKRGPWFDYWGQGTLVTVSS | Kd (human soluble TNFR1 [2]): 0.407 nM and 0.3 nM to 0.5 nM (2×); IC50 [4]: ~1 nM
 |  | 1.75 fold | 5.9 fold | 15 fold | 7 fold | 6.5 fold | 0.185 nM | EN-1206-Fc-BV (Fc fusion, Homodimeric, bivalent; In some paragraphs 'EN1206' also means the HSA fusion or the dAb itself; also called EN1206-BV; EN1206 bivalent) EVQLLESGGGLVQPGGSLRLSCAASGFTFAHETMVWVRQAPGKGLEWVSHIPPDGQDPFYADSVKGRFTISRDNSKNTLYLQMNSLRAEDTAVYHCALLPKRGPWFDYWGQGTLVTVSSDKTHTCPPCPAPEAAGGPSVFLFPPKPKDTLYITREPEVTCVVVDVSHEDPEVKFNWYVDGVEVHNAKTKPREEQYNSTYRVVSVLTVLHQDWLNGKEYKCKVSNKALGAPIEKTISKAKGQPREPQVYTLPPSRDELTKNQVSLTCLVKGFYPSDIAVEWESNGQPENNYKTTPPVLDSDGSFFLYSKLTVDKSRWQQGNVFSCSVMHEALHNHYTQKSLSLSPGK | binding result (human soluble TNFR2 [6]): no binding; Kd (human soluble TNFR1 [7]): 1.49 nM

Continued, binder first:

Binder | Kd [1] | TNF Dependent Bioassay (IC50): VCAM [3] | relative gene expression of IL8/CXCL8 (qPCR, THP1 cells, TNF 100 ng/ml), 1 nM inhibitor, against baseline [5] | fold improvement over Etanercept in inhibition of IL-8 expression, TNF-stimulated THP1 cells (qPCR) [5] | fold improvement over Etanercept in inhibition of TNF expression, TNF-stimulated THP1 cells (qPCR) [5] | relative potency against 206dAb, suppression of TNF-induced expression of IL8/CXCL8 in THP1 cells, 1 nM [5] | relative potency against 206dAb, suppression of TNF-induced expression of TNF in THP1 cells, 1 nM [5] | Kd (human soluble TNFR1 [8]) | further results
EN-1000-206 (VHH) VHH: EVQLLESGGGLVQPGGSLRLSCAASGFTFAHETMVWVRQAPGKGLEWVSHIPPDGQDPFYADSVKGRFTISRDNSKNTLYLQMNSLRAEDTAVYHCALLPKRGPWFDYWGQGTLVTVSS |  |  | 8 fold |  |  |  |  |  | 
EN-1206-Fc-MV (Fc fusion, One-armed (monovalent) knob-into-hole heterodimer; the leader is cleaved on expression; also called EN1206-MV; EN1206-mv) chain 1: EVQLLESGGGLVQPGGSLRLSCAASGFTFAHETMVWVRQAPGKGLEWVSHIPPDGQDPFYADSVKGRFTISRDNSKNTLYLQMNSLRAEDTAVYHCALLPKRGPWFDYWGQGTLVTVSSDKTHTCPPCPAPEAAGGPSVFLFPPKPKDTLYITREPEVTCVVVDVSHEDPEVKFNWYVDGVEVHNAKTKPREEQYNSTYRVVSVLTVLHQDWLNGKEYKCKVSNKALGAPIEKTISKAKGQPREPQVYTLPPSRDELTKNQVSLWCLVKGFYPSDIAVEWESNGQPENNYKTTPPVLDSDGSFFLYSKLTVDKSRWQQGNVFSCSVMHEALHNHYTQKSLSLSPGK chain 2: DKTHTCPPCPAPEAAGGPSVFLFPPKPKDTLYITREPEVTCVVVDVSHEDPEVKFNWYVDGVEVHNAKTKPREEQYNSTYRVVSVLTVLHQDWLNGKEYKCKVSNKALGAPIEKTISKAKGQPREPQVYTLPPSRDELTKNQVSLSCAVKGFYPSDIAVEWESNGQPENNYKTTPPVLDSDGSFFLVSKLTVDKSRWQQGNVFSCSVMHEALHNHYTQKSLSLSPGK |  |  | 1.75 fold | 10.6 fold | 6.8 fold | 9.3 fold | 9 fold | 0.388 nM | binding result (human soluble TNFR2 [9]): no binding; Kd [10]: 0.314 nM; koff [10]: 0.000284 s⁻¹; kon [10]: 903000 M⁻¹ s⁻¹
Vhh-2 (VHH, not shown: small tags and cut ends) VHH: EVQLLESGGGLVQPGGSLRLSCAASGFTFSQYRMHWVRQAPGKSLEWVSSIDTRGSSTYYADPVKGRFTISRDNSKNTLYLQMNSLRAEDTAVYYCAKAVTMFSPFFDYWGQGTLV | 1000 nM | 3 nM |  |  |  |  |  |  | 
